Measurements taken from patent US12049482B2, “Molecular switch-mediated control of engineered cells” (THE GENERAL HOSPITAL CORPORATION, priority 2017, dated 2024).

How the values were obtained:
CRBN [1] = assay: Internalization and degradation of CD28-degron-GFP in 293T cells; assay type: cell-based, human; conditions: 10 μM pomalidomide, 293T cells with biallelic CRBN exon 5 disruption
Description: Transduced cells were incubated with a range of Pomalidomide concentrations or DMSO for 20 hours. Cells were analyzed by flow cytometry for eGFP and mCherry fluorescence. 1000 mCherry+ cells were analyzed per sample, and the geometric mean of the per-cell eGFP/mCherry ratio was calculated in Flowjo. In Pomalidomide dose titration studies, the EC50 was calculated by non-linear regression in Prism. Experiments were performed in triplicate. In some cases cell surface protein expression was assayed in parallel with the above reporter assay; cells were stained with anti-CD28-BV421 antibody (BD Biosciences 562613) at a 1:50 dilution in FACS buffer (PBS+2% FCS+2 mM EDTA) for 10 minutes on ice. Cells were washed with FACS buffer and analyzed by flow cytometry.

CRBN [2] = biological target: CRBN (Homo sapiens, UniProt Q96SW2); assay: EGFP/mCherry reporter of zinc finger degron sequences, IMiD titration; assay type: cell-based; design: endogenous in cells; conditions: HEK239T cells, drug titration, 20 h
Sequence of CRBN (Homo sapiens, UniProt Q96SW2) (Q96SW2 whole entry): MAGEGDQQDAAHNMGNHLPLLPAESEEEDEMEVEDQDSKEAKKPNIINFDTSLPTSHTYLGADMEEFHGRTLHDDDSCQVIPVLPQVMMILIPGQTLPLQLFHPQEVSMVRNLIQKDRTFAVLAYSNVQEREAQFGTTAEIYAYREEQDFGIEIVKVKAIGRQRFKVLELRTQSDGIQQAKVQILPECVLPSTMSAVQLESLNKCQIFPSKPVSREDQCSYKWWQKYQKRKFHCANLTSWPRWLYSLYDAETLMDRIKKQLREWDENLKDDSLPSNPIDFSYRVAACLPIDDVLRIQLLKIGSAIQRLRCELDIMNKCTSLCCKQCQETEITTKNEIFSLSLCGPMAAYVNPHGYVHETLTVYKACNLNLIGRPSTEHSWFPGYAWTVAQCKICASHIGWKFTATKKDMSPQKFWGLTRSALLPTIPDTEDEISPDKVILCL
Description: A hybrid sequence of two distinct CRBN substrates, IKZF3 and ZFP91, was constructed and examined for activity within an “OFF-switch” system of the instant disclosure. In such experiments, reporter constructs containing zinc finger sequences were expressed in HEK239T cells via lentiviral transduction, after which the cells were treated with a titration of (IMiD) drug concentrations for 20 h. Flow cytometry was used to measure the EGFP/mCherry ratio normalized to the average of three DMSO treated controls. Data shown in FIG. 10 are representative of two experimental replicates (technical replicates=0, experimental replications=2).

IKZF3aa130-189 = assay: BRET assay, dimerization of IKZF3aa130-189 with CRBN or minCRBN variants; assay type: cell-based, human; conditions: pomalidomide dose-response
Sequence of IKZF3aa130-189 (Q9UKT9 130-189 limits assumed, one chain of several): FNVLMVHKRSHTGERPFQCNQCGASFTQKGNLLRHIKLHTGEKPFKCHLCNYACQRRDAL
Description: Specifically, CRBN deletion variants were engineered to retain binding to Pom/IKZF3 but not DDB1/CUL4. Four deletion variants were generated in CRBN that removed the DDB1-binding domain, as shown in the middle image (NTD is the N-terminal domain; LLP1 is Lon-like protease domain 1 (split into LLP1-N and LLP1-C regions); TBD is the Thalidomide binding domain). At middle, BRET assays were performed upon 293T cells harboring bialleleic CRISPR/Cas9 disruption of endogenous CRBN (293T-CRBNΔe5), to assess dimerization between IKZF3aa130-189 and CRBN or minCRBN variants (dose-response data shown are CRBN, minCRBN1, minCRBN2, minCRBN3 and minCRBN4). […] Pomalidomide-dependent dimerization was observed between IKZF3aa130-189-HaloTag and CRBN-Nanoluciferase (NLuc) or minCRBN2-4-NLuc. […] 1 day after transfection, cells were exposed to 1 μM pomalidomide for the number of hours indicated and GFP and mCherry fluorescence was measured by flow cytometry (eGFPmCherry levels were detected as 0.5 or less for the CRBN trace).
(§1) 293T cells were co-transfected with pFC14K and pFC32K plasmids expressing IKZF3-HaloTag and CRBN-Nanoluciferase fusion proteins and incubated overnight. Cells were then trypsinized and seeded into 96 well plates, at 40,000 cells per well. The BRET assay was performed per manufacturer's instructions (Promega™). In brief, cells were incubated for 2 hours with varying concentrations of Pomalidomide or DMSO, 10 μM MG132, and 100 nM HaloTag NanoBRET 618 Ligand. NanoBRET Nano-Glo substrate was added and donor (460 nm) and acceptor (618 nm) emission were measured within 10 minutes (EnVision, Perkin Elmer). Mean corrected milliBRET units (mBU) was calculated.
Tested forms of minimal CRBN included minCRBN1, minCRBN2, minCRBN3 and minCRBN4, each of which were aligned against the wild-type CRBN (FIG. 1; all tested minCRBNs lacked the DDB1-binding domain—minCRBN1 comprised amino acids 339-442 of CRBN (including the TBD); minCRBN2 comprised amino acids 317-442 of CRBN (including TBD and an N-terminal extended sequence relative to minCRBN1); minCRBN3 included all CRBN sequence other than amino acids 194-207 (deletion of the DDB1-binding domain); and minCRBN4 included all sequences other than amino acids 187-260 (deletion of the DDB1-binding domain)).

CD19scFv-CD28-IKZF3 = assay: BRET, split receptor: membrane-tethered or untethered minCRBN3 paired with CD19scFv-CD28-IKZF3; assay type: cell-based, human; conditions: 293T cells, 10 μM MG132, 2 hours of drug treatment
Sequence of CD19scFv-CD28-IKZF3 (as listed by the source, one chain of several): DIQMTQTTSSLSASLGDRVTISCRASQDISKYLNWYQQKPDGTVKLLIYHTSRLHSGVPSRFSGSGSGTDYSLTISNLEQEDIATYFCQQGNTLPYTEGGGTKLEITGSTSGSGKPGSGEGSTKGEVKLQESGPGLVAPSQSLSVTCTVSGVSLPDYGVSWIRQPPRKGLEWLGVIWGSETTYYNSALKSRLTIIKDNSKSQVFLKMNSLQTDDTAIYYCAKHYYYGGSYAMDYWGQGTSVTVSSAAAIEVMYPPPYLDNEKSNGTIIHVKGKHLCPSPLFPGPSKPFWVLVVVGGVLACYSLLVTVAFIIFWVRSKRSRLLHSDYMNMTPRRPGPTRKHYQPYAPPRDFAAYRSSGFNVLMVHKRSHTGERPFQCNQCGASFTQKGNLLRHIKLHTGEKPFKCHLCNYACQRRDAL
Description: as §1
Specific minCRBN-presenting polypeptide tethers to the plasma membrane that were tested included: (1) a CD8/CD28 system in which about 36 amino acids of TMD and cytosolic sequence connected to the co-stimulatory/minCRBN domains of the thereby membrane-tethered polypeptide; (2) a PD1 Y F ITAM/ITSM construct, in which minCRBN was tethered to the plasma membrane via a TMD and cytosolic domain of approximately 100 amino acids in length; and (3) a LYN-CD28 construct, in which membrane tethering was achieved via myristoyl/palmitoylation.

“CD28-degron: In frame fusion of full length CD28, a SG linker, and IKZF3 (amino acids 130-189); SEQ ID NO: 82” was tested, and the “degradation (normalized GFP levels)” value (CRBN [1]) was “no significant decline in normalized GFP levels”.

With “IKZF3/ZFP91: Reverse hybrid, IKZF3 amino acids 146-156 + ZFP91 amino acids 411-422, SEQ ID NO: 33 (FQCNQCGASFTQKASLNWHMKKH)” the “IMiD sensitivity (EGFP/mCherry ratio normalized to DMSO)” value (CRBN [2]) was “minimal IMiD sensitivity/responsiveness”.

“ZFP91/IKZF3 hybrid: ZFP91 amino acids 400-410 + IKZF3 amino acids 157-168, SEQ ID NO: 32 (LQCEICGFTCRQKGNLLRHIKLH)” was tested, and the “IMiD sensitivity (EGFP/mCherry ratio normalized to DMSO)” value (CRBN [2]) was “greater IMiD sensitivity than either the ZFP91 degron sequence alone or the IKZF3 degron sequence alone”.

B1: minCRBN3: All CRBN sequence other than amino acids 194-207 (deletion of the DDB1-binding domain), SEQ ID NO: 3 (protein)
chain: AGEGDQQDAAHNMGNHLPLLPESEEEDEMEVEDQDSKEAKKPNIINFDTSLPTSHTYLGADMEEFHGRTLHDDDSCQVIPVLPQVMMILIPGQTLPLQLFHPQEVSMVRNLIQKDRTFAVLAYSNVQEREAQFGTTAEIYAYREEQDFGIEIVKVKAIGRQRFKVLELRTQSDGIQQAKVQILPECVLPSTYDAETLMDRIKKQLREWDENLKDDSLPSNPIDFSYRVAACLPIDDVLRIQLLKIGSAIQRLRCELDIMNKCTSLCCKQCQETEITTKNEIFSLSLCGPMAAYVNPHGYVHETLTVYKACNLNLIGRPSTEHSWFPGYAWTVAQCKICASHIGWKFTATKKDMSPQKFWGLTRSALLPTIPDTEDEISPDKVILCL
For B1, the “pomalidomide-dependent dimerization with IKZF3 degron (mBU)” value (IKZF3aa130-189) was “pomalidomide-dependent interactions” and the “pomalidomide-dependent interaction with IKZF3 degron split receptor (BRET)” value (CD19scFv-CD28-IKZF3) was “to a significantly lesser extent than any of the various plasma membrane-tethered versions”.
